Results: article PMC10461225, “Creation of a Peptide Antagonist of the GFRAL–RET Receptor Complex for the Treatment of GDF15-Induced Malaise” (Journal of Medicinal Chemistry, 2023)
Square brackets hold non-standard residues; d marks the D form. Ends that are not written are not given here. Peptide text beside a SMILES is read from it. PEG2‑C4‑alkyne‑biotin = PEG2-C4-alkyne-modified biotin; Lys(N3) = [N-]=[N+]=NCCCC[C@H](N)C(=O)O; K‑azido = azido-modified lysine

Legend:
GFRAL ECD (Homo sapiens) = GFRAL ECD (Homo sapiens) (UniProt Q6UXV0); conditions: cited from earlier work
Sprague–Dawley rats = system: Sprague–Dawley rats
Description: In a follow-up experiment, we evaluated responses to the gold standard antiemetic Ondansetron alone or in combination with GRASP to determine whether the combination would enhance the efficacy of the former compound in preventing CINV in rats.
All systemic treatments were delivered by intraperitoneal (IP) injection.
Rats (n = 98, 300–330 g) received IP injections of GRASP (100 nmol/kg), Ondansetron (2 mg/kg), both GRASP and Ondansetron together, or saline control […] before systemic administration of cisplatin. Six hours later, rats received a second injection of GRASP or vehicle control. Food and kaolin intake were measured at 3, 6, and 24 h postinjection.
All data were expressed as means ± SEM.

[1] = molecular target: T1, Recombinant His-tagged human GFRAL (Ser19–Glu351) (human, UniProt Q6UXV0 19-351); assay: SPR; GFRAL (S19-E351) immobilised by amine coupling (EDC/NHS) on a high-capacity carboxyl sensor (Nicoya OpenSPR); peptides or GDF15 as analyte; HBSS pH 7.4 running buffer without BSA; 20 uL/min; conditions: both partners purified
T1 construct: GDNF family receptor alpha-like (GFRAL), human, extracellular domain S19-E351 as defined by UniProt Q6UXV0; also called GFRAL–ECD; GFRAL (S19–E351); source: bought: ACRO Biosystems (GFA-H52H3), expressed in HEK293 cells
T1 sequence (looked up): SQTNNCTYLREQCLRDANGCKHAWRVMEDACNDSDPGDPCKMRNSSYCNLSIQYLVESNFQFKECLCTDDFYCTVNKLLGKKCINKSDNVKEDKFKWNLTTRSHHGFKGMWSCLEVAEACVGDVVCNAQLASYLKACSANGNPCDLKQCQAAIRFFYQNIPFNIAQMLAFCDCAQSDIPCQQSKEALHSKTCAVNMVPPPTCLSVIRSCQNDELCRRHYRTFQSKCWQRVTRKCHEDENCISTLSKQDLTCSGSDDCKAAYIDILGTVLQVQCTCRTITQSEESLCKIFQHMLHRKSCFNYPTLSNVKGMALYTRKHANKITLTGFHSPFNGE

[2] = molecular target: T1, Recombinant His-tagged human GFRAL …; assay: SPR; biotin-GRASP immobilised on a streptavidin-coated biotin sensor (Nicoya OpenSPR); GFRAL-ECD (20, 100, 200, 600 nM), GDF15 (1 uM) or RET (0.29 uM) as analyte; HBSS pH 7.4; 1:1 fit with local Bmax (TraceDrawer); conditions: both partners purified
[3] = molecular target: T2, Full-length human GFRAL on stably transfected HEK293 cells (human, UniProt Q6UXV0 19-394); assay: flow cytometry on cells; GRASPCy5 (0.1-1000 nM) in HBSS pH 7.4, 30 min at 37 °C, on HEK293 cells stably overexpressing full-length human GFRAL; untransfected HEK293 cells as control; conditions: one partner purified
T2 construct: GDNF family receptor alpha-like (GFRAL), human, full-length, overexpressed on HEK293 cells; also called GFRAL–HEK293 cells; GFRAL-expressing HEK293 cells; source: HEK293 cells stably overexpressing human GFRAL, bought: Creative Biogene (CSC-SC006226)
T2 sequence (looked up): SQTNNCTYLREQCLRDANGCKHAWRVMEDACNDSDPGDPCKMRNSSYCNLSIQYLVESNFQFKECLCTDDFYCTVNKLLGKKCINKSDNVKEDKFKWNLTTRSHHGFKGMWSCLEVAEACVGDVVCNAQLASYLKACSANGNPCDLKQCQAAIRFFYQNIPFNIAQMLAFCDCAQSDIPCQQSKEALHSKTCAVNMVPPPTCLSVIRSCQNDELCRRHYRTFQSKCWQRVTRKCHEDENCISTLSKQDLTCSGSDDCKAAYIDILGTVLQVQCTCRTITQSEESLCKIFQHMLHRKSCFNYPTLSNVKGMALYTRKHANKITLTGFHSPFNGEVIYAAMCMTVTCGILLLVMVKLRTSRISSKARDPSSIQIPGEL

[4] = GRASP 100 nmol/kg IP BID alone or with Ondansetron 2 mg/kg IP, no cisplatin
[5] = GRASP 100 nmol/kg IP BID, Ondansetron 2 mg/kg IP, cisplatin 6 mg/kg IP, n = 10–16 per group

GDF15 (from UniProt Q99988)
Kd (GFRAL ECD (Homo sapiens)): 1 nM

CC[C@H](C)[C@H](NC(=O)[C@H](CC(C)C)NC(=O)[C@H](CCC(=O)O)NC(=O)[C@H](CCC(=O)O)NC(=O)[C@H](CCCCN=[N+]=[N-])NC(=O)[C@@H](N)[C@@H](C)O)C(=O)N[C@@H](Cc1c[nH]cn1)C(=O)N[C@@H](C)C(=O)N[C@@H](Cc1c[nH]cn1)C(=O)N[C@@H](C)C(=O)N[C@@H](CC(=O)O)C(=O)N1CCC[C@H]1C(=O)N[C@@H](CCSC)C(=O)N[C@H](C(=O)N[C@@H](CC(C)C)C(=O)N[C@H](C(=O)N[C@@H](CCC(N)=O)C(=O)N[C@@H](CCCCN)C(=O)N[C@H](C(=O)N[C@@H](CC(=O)O)C(=O)N[C@H](C(=O)NCC(=O)N[C@H](C(=O)N[C@@H](CO)C(=O)N[C@@H](CC(C)C)C(=O)N[C@@H](CCC(N)=O)C(=O)N[C@H](C(=O)N[C@@H](Cc1ccc(O)cc1)C(=O)N[C@@H](CC(=O)O)C(N)=O)[C@@H](C)O)C(C)C)[C@@H](C)O)[C@@H](C)O)[C@@H](C)CC)C(C)C [GRASP] (H-T[Lys(N3)]EELIHAHADPMVLIQKTDTGVSLQTYD-NH2)
impact on food or kaolin intake in healthy rats (Sprague–Dawley rats; [4]): had no impact on food or kaolin intake in healthy rats | tolerability in healthy rats (Sprague–Dawley rats; [4]): well-tolerated

Cc1nccn1CC1CCc2c(c3ccccc3n2C)C1=O (centres unmarked) [Ondansetron]
effect on cisplatin-induced anorexia (Sprague–Dawley rats; [5]): Neither Ond (2 mg/kg of IP) nor GRASP (100 nmol/kg of IP [BID]) alone had any impact | effect on cisplatin-induced kaolin intake (Sprague–Dawley rats; [5]): significantly reduced cisplatin-induced kaolin intake

B1: GRASP (K2-azido-modified 29-amino acid peptide) (peptide)
peptide: T[K‑azido]EELIHAHADPMVLIQKTDTGVSLQTYD
notes: designed peptide with GDF15-like loop regions; printed as T(K-azido)[residues removed]; In-house synthesis was on a Rink amide resin, which would give a C-terminal amide; also called GFRAL receptor antagonist; unlabeled GRASP; source: synthetic peptide (Genscript or in-house solid-phase synthesis), HPLC purified to >95%
Kd [1]: 179000 nM

B2: Biotinylated GRASP (peptide)
peptide: T[K‑azido](PEG2‑C4‑alkyne‑biotin)EELIHAHADPMVLIQKTDTGVSLQTYD
notes: GRASP peptide as m1, biotin on the azido-lysine at position 2; Held on the sensor through biotin-streptavidin (His-tagged streptavidin on a biotin sensor); also called biotin-conjugated GRASP; biotin-GRASP; source: synthetic peptide, conjugated to PEG2-C4-alkyne biotin, RP-HPLC purified (95%)
Kd [2]: 74.1 nM

B3: GRASPCy5 (peptide)
peptide: TKEELIHAHADPMVLIQKTDTGVSLQTYD
modifications: not fully specified (residue 2); printed as T(K-azido)EELIHAHADPMVLIQKTDTGVSLQTYD
notes: GRASP peptide as m1, sulfo-Cy5 on the azido-lysine at position 2; also called sulfo-Cy5 GRASP conjugate; GRASP(K2)–fluorophore conjugate; source: synthetic peptide, conjugated to DBCO-Cy5, RP-HPLC purified (95%)
Kd [3]: 8.98 nM
